# Results reported in patent publication US20180155451A1 (published 2018).
# Substitutions are numbered along the chain they refer to. Names may count otherwise.
# T1: FcγRIIb (human, UniProt P31994 43-217)
# T1 construct: extracellular domain; for crystallography expressed with Kifunesine and trimmed with Endo F1; also called FcgRIIb; FcgR2b; not shown: His tag attached to the C terminus
# T1 sequence (looked up): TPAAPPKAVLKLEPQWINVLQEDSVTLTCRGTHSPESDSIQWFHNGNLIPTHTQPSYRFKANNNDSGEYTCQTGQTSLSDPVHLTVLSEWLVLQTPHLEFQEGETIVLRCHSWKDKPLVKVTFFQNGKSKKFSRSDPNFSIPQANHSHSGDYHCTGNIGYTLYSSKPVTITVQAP
# T2: FcgRIIaR (human, UniProt P12318 34-217)
# T2 construct: extracellular domain; R131 allotype; also called FcγRIIa R; FcgRIIa type R; not shown: C-terminal His tag
# T2 sequence (looked up): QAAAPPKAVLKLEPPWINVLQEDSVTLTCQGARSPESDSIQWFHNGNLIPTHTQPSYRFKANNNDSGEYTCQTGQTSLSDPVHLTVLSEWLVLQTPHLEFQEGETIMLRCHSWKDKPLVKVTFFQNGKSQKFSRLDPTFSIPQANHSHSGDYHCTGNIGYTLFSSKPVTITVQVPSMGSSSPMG
# T3: FcgRIIaH (human, UniProt P12318 34-217)
# T3 construct: extracellular domain; H131 allotype; also called FcγRIIa H; FcgRIIa type H; not shown: C-terminal His tag
# T3 sequence (looked up): T2 sequence (looked up) with R134H
# T4: FcgRIIb (human, UniProt P31994 43-217)
# T4 construct: extracellular domain; also called FcγRIIb; CD32B; not shown: C-terminal His tag
# T4 sequence (looked up): T1 sequence (looked up)
# B1: H240-Kn120/H240-Hl068/L73-k0 (antibody, human IgG1, kappa)
# heavy 1: QDQLVQSGAEVKKPGASVKVSCKASGFNIKDTYIQWVRQAPGQGLEWMGRIDPLRKQTKYREKFEGRVTITADTSTNTAYMELSSLRSEDTAVYYCVRSGREFDYWGQGTLVTVSSASTKGPSVFPLAPSSKSTSGGTAALGCLVKDYFPEPVTVSWNSGALTSGVHTFPAVLQSSGLYSLSSVVTVPSSSLGTQTYICNVNHKPSNTKVDKKVEPKSCDKTHTCPPCPAPEYYWGPMVFLFPPKPKDTLMISRTPEVTCVVVDVSDEDPEVKFNWYVDGVEVHNAKTKPREEQYNATYRVVSVLTVLHQDWLNGKEYKCKVSNKDLPAPIEKTISKAKGQPREPQVCTLPPSRDELTKNQVSLWCLVKGFYPSDIAVEWESNGQPENNYKTTPPVLDSDGSFFLYSKLTVDKSRWQQGNVFSCSVMHEALHNHYTQKSLSLSP
# heavy 2: QDQLVQSGAEVKKPGASVKVSCKASGFNIKDTYIQWVRQAPGQGLEWMGRIDPLRKQTKYREKFEGRVTITADTSTNTAYMELSSLRSEDTAVYYCVRSGREFDYWGQGTLVTVSSASTKGPSVFPLAPSSKSTSGGTAALGCLVKDYFPEPVTVSWNSGALTSGVHTFPAVLQSSGLYSLSSVVTVPSSSLGTQTYICNVNHKPSNTKVDKKVEPKSCDKTHTCPPCPAPELLGGPSVFLFPPKPKDTLMISRTPEVTCVVVDVSHEEPEVKFNWYVDGVEVHNAKTKPREEQYNSTYRVVSVLTVLHQDWLNGKEYKCKVSNDALPKPIEETISKAKGQPREPQVYTLPPSRCELTKNQVSLSCAVKGFYPSDIAVEWESNGQPENNYKTTPPVLDSDGSFFLVSKLTVDKSRWQQGNVFSCSVMHEALHNHYTQKSLSLSP
# light: DIQMTQSPSSLSASVGDRVTITCRASQDIHKYIAWYQQKPGQAPRLLIQYTSTLQPGVPSRFSGSGSGTDYTFTISSLQPEDIATYYCLQYEQLRTFGGGTKVEIKRTVAAPSVFIFPPSDEQLKSGTASVVCLLNNFYPREAKVQWKVDNALQSGNSQESVTEQDSKDSTYSLSSTLTLSKADYEKHKVYACEVTHQGLSSPVTKSFNRGEC
# notes: S239M added to H240-Kn067
# B2: H240-Kn192/H240-Hl204/L73-k0 (antibody, human IgG1, kappa)
# heavy 1: B1 heavy 1 with Y234N, E293K
# heavy 2: B1 heavy 2 with G235T, I331E
# light: B1 light
# notes: Heterodimerized anti-epiregulin antibody
# B3: H240-Kn193/H240-Hl204/L73-k0 (antibody, human IgG1, kappa)
# heavy 1: B1 heavy 1 with Y234N, E293R
# heavy 2: B1 heavy 2 with G235T, I331E
# light: B1 light
# notes: as for B2
# B4: GpH7-A45/GpH7-B3/GpL16-k0 (antibody, human IgG1, kappa)
# heavy 1: QVQLVQSGAEVKKPGASVTVSCKASGYTFTDYEMHWIRQPPGEGLEWIGAIDPKTGDTAYSESFQDRVTLTADKSTSTAYMELSSLTSEDTAVYYCTRFYSYTYWGQGTLVTVSSASTKGPSVFPLAPSSKSTSGGTAALGCLVKDYFPEPVTVSWNSGALTSGVHTFPAVLQSSGLYSLSSVVTVPSSSLGTQTYICNVNHKPSNTKVDKKVEPKSCDKTHTCPPCPAPELLGAPSVFLFPPKPKDTLMISRTPEVTCVVVDVSHEDPEVKFNWYVDGVEVHNAKTKPREEQYNSTYRVVSVLTVLHQDWLNGKEYKCKVSNKALRAPIEKTISKAKGQPREPQVYTLPPSRKELTKNQVSLTCLVKGFYPSDIAVEWESNGQPENNYKTTPPVLDSDGSFFLYSKLTVDKSRWQQGNVFSCSVMHEALHNRYTQKSLSLSP
# heavy 2: not shown
# light: DIVMTQSPLSLPVTPGEPASISCQASESLVHSNRNTYLHWYLQKPGQSPQLLIYKVSNRFSGVPDRFSGSGSGTDFTLKISRVEAEDVGVYYCSQNTHVPPTFGQGTKVEIERTVAAPSVFIFPPSDEQLKSGTASVVCLLNNFYPREAKVQWKVDNALQSGNSQESVTEQDSKDSTYSLSSTLTLSKADYEKHKVYACEVTHQGLSSPVTKSFNRGEC
# notes: G237A and P329R in the same H chain
# B5: GpH7-TA7/GpH7-B78/GpL16-k0 (antibody, human IgG1, kappa)
# heavy 1: B4 heavy 1 with L232Y, G234W, A235G, S296A, R327P
# heavy 2: B4 heavy 1 with A235G, S237D, R327P, A328L, I330E, K354D, R433H, K437E
# light: B4 light
# notes: Heterodimerized anti-glypican-3 IgG1 antibody with two different H chains and a common L chain; also called TA7/B78
# Assays:
# [1] = target: T1, FcγRIIb; assay: SPR (Biacore), KD
# [2] = target: T2, FcgRIIaR; assay: SPR (Biacore), antibody captured on chip, FcgR as analyte
# Experimental: (§1) The variants described above were assessed for their binding to FcγR according to the method described in Reference Example 8.
# (§2) Analysis of interaction between obj ective antibody and the FcγR was carried out using Biacore T100 (GE Healthcare), Biacore T200, Biacore A100, and Biacore 4000. HBS-EP+ (GE Healthcare) was used as the running buffer, and the measurement temperature was set to 25° C. Chips produced by immobilizing the antigen peptide by the amine coupling method to a Series S sensor Chip CM5 (GE Healthcare), chips produced by allowing preliminarily biotinylated antigen peptides to interact with and immobilize onto a Series S Sensor Chip SA (certified) (GE Healthcare), chips produced by immobilizing Protein L (ACTIGEN, BioVision) to Series S Sencor Chip CM5 (GE Healthcare), or chips produced by immobilizing Protein A/G (Thermo Scientific) to Series S Sencor Chip CM5 (GE Healthcare) were used. Antibodies of interest were captured onto these chips, and allowed to interact to each FcγR diluted with running buffer. To regenerate and repeatedly use the chip, the antibodies captured onto the chip were washed off by reacting 10 mM glycine-HCl, pH 1.5.
# [3] = target: T3, FcgRIIaH; assay: as above
# Experimental: as §1, §2
# [4] = target: T4, FcgRIIb; assay: as above
# Experimental: as §1, §2
# [5] = target: T5, FcgRIIIaF (human, UniProt P08637 17-208); assay: as above
# T5 construct: extracellular domain; F158 allotype; also called FcγRIIIa F; not shown: C-terminal His tag
# T5 sequence (P08637 17-208): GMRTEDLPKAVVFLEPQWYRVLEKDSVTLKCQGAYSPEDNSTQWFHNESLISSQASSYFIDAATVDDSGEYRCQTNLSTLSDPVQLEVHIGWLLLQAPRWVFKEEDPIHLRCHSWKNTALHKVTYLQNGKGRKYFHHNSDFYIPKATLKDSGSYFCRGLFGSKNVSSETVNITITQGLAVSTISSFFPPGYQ
# Experimental: as §1, §2
# [6] = target: T6, FcgRIIIaV (human, UniProt P08637 17-208); assay: as above
# T6 construct: extracellular domain; V158 allotype; also called FcγRIIIa V; not shown: C-terminal His tag
# T6 sequence (P08637 17-208 F176V limits assumed): as the sequence (P08637 17-208) above, with F160V counted along it
# Experimental: as §1, §2
# [7] = target: T2, FcgRIIaR; assay: SPR (Biacore); KD of H240-Kn120/H240-Hl068/L73-k0 divided by KD of the sample
# Experimental: as §1, §2
# [8] = target: T3, FcgRIIaH; assay: as above
# Experimental: as §1, §2
# [9] = target: T4, FcgRIIb; assay: as above
# Experimental: as §1, §2
# [10] = target: T5, FcgRIIIaF; assay: as above
# Experimental: as §1, §2
# [11] = target: T6, FcgRIIIaV; assay: as above
# Experimental: as §1, §2
# [12] = target: T7, FcgRIa (human, UniProt P12314 16-292); assay: SPR (Biacore 4000), antibody captured on chip, FcgR as analyte; kd below the limit 5e-5 /s
# T7 construct: extracellular domain; also called FcγRIa; FcγRI; not shown: C-terminal His tag
# T7 sequence (P12314 16-292): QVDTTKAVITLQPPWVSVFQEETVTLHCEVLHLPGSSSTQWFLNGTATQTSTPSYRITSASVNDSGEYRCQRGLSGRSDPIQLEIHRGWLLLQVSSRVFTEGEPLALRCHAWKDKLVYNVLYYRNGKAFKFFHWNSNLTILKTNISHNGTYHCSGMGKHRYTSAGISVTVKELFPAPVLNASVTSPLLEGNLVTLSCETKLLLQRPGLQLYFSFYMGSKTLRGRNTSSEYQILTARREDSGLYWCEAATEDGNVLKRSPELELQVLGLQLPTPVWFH
# Experimental: as §1, §2
# [13] = target: T1, FcγRIIb; assay: SPR (Biacore), relative binding; compared with GpH7-A48/GpH7-B3/GpL16-k0
# Experimental: (§3) Analysis of interaction between objective antibody and the FcγR was carried out using Biacore T100 (GE Healthcare). HBS-EP+ (GE Healthcare) was used as the running buffer, and the measurement temperature was set to 25° C. Chips produced by immobilizing the antigen peptide by the amine coupling method to a Series S Sencor Chip CM5 (GE Healthcare), or alternatively, chips produced by allowing preliminarily biotinylated antigen peptides to interact with and immobilize onto a Series S Sensor Chip SA (certified) (GE Healthcare) were used. Antibodies of interest were captured onto an antigen peptide-immobilized chip, and allowed to interact to each FcγR diluted with running buffer. To regenerate and repeatedly use the chip, the antibodies captured on the chip were washed off by reacting 10 mM glycine-HCl, pH 1.5.
# [14] = target: T8, FcγRIIIa (human, UniProt P08637 17-208); assay: SPR (Biacore T100); antibody captured on an antigen peptide chip, FcγRIIIa as analyte; 1:1 Langmuir kinetic fit
# T8 construct: extracellular domain; The protein is soluble, His-tagged, and was expressed in FreeStyle293 cells; also called FcgRIIIa; CD16A; not shown: His tag attached to the C terminus
# T8 sequence (P08637 17-208): as the sequence (P08637 17-208) above
# Experimental: (§4) Then, K334G was also assessed in the same manner. GpH7-TA40 (SEQ ID NO: 47) resulting from the introduction of K334G into GpH7-TA7 was constructed, and expressed and prepared in combination with GpH7-B78 according to the method described in Reference Example 1. Furthermore, GpH7-TA50 (SEQ ID NO: 48) resulting from the introduction of K334G into GpH7-B78 was constructed, and expressed and prepared in combination with GpH7-TA7 according to the method described in Reference Example 1. To assess the effect of combinations with K334G, the prepared antibodies were compared for the FcγRIIIa binding according to the method described in Reference Example 2 (Table 18).
# as §3
# [15] = target: T8, FcγRIIIa; assay: SPR (Biacore); KD of GpH7-TA7/GpH7-B78/GpL16-k0 for FcγRIIIa divided by the KD of this antibody (the reference itself)
# Experimental: as §4
# as §3, with “To regenerate and repeatedly use the chip, the antibodies captured on the chip were washed off by reacting 10 mM glycine-HCl, pH 1.5.” left out
Binder,Kd [2],Kd [3],Kd [4],Kd [5],Kd [6],Relative KD [7],Relative KD [8],Relative KD [9],Relative KD [10],Relative KD [11],Kd [12],other results
B1,,,,,,,,,,,,fold increase of binding activity over native IgG1 [1]: ~50 fold
B2,19 nM,42 nM,290 nM,12 nM,2.2 nM,1.1,1,0.5,0.2,0.2,< 0.019 nM,
B3,16 nM,35 nM,290 nM,11 nM,1.8 nM,1.3,1.2,0.5,0.2,0.2,< 0.024 nM,
B4,,,,,,,,,,,,binding result [13]: binds
B5,,,,,,,,,,,,Kd [14]: 4.1 nM; KD ratio [15]: 1
